{
  "source": "patent US20240158455A1",
  "about": "“MULTIPLE SCLEROSIS ASSOCIATED AUTOANTIGENS, AND USE THEREOF IN THERAPY AND DIAGNOSIS” (NEOGAP Therapeutics AB, priority 2017, published 2024)",
  "molecules": {"B1": {"name": "FABP7 peptide #22 (Aa 107-121 of SEQ ID NO: 6) (peptide)", "peptide": "REIKDGKMVMTLTFG", "notes": "FABP7 isoform 1 peptide; also called Pool 4 FABP7"}, "B2": {"name": "FABP7 peptide #23 (Aa 112-126 of SEQ ID NO: 6) (peptide)", "peptide": "GKMVMTLTFGDVVAV", "notes": "as for B1"}},
  "data": [
    {"target": "HLA DRB5 01:01 (Homo sapiens, UniProt P01903+Q30154)", "assay": "Competitive binding assay of overlapping peptides to HLA", "conditions": "competitive binding to HLA DRB5 01:01, compared with reference H1N1 influenza peptide", "values": [
      {"molecule": "Aa 32-46-SEQ ID NO: 1 (QVGNVTKPTVIISQE; listed as Homo sapiens) [FABP7 #7]", "Binding affinity": "−"},
      {"molecule": "Aa 87-101-SEQ ID NO: 1 (LDGDKLVHIQKWDGK; listed as Homo sapiens) [FABP7 #18]", "Binding affinity": "−"},
      {"molecule": "Aa 52-66-SEQ ID NO: 1 (IRTLSTFKNTEISFQ; listed as Homo sapiens) [FABP7 #11]", "Binding affinity": "−"},
      {"molecule": "Aa 67-81-SEQ ID NO: 1 (LGEEFDETTADDRNC; listed as Homo sapiens) [FABP7 #14]", "Binding affinity": "−"},
      {"molecule": "Aa 92-106-SEQ ID NO: 1 (LVHIQKWDGKETNFV; listed as Homo sapiens) [FABP7 #19]", "Binding affinity": "−"},
      {"molecule": "Aa 112-126-SEQ ID NO: 6 (GKMVMTLTFGDVVAV; listed as Homo sapiens) [FABP7 #23]", "Binding affinity": "−"},
      {"molecule": "Aa 152-166-SEQ ID NO: 1 (SFFNNTSLARFFNYM; listed as Homo sapiens) [FABP7 #34]", "Binding affinity": "+"},
      {"molecule": "Aa 102-116-SEQ ID NO: 1 (ETNFVREIKDGKMVM; listed as Homo sapiens) [FABP7 #21]", "Binding affinity": "+"},
      {"molecule": "Aa 22-36-SEQ ID NO: 1 (KALGVGFATRQVGNV; listed as Homo sapiens) [FABP7 #5]", "Binding affinity": "−"},
      {"molecule": "Aa 42-56-SEQ ID NO: 1 (IISQEGDKVVIRTLS; listed as Homo sapiens) [FABP7 #9]", "Binding affinity": "−"},
      {"molecule": "Aa 64-69 + 96-104-SEQ ID NO: 2 [PROK2 #16]", "Binding affinity": "+"},
      {"molecule": "Aa 12-26-SEQ ID NO: 1 (TNSQNFDEYMKALGV; listed as Homo sapiens) [FABP7 #3]", "Binding affinity": "−"},
      {"molecule": "Aa 73-87-SEQ ID NO: 2 (RKNNFGNGRQERRKR; listed as Homo sapiens) [PROK2 #10]", "Binding affinity": "+"},
      {"molecule": "Aa 146-160-SEQ ID NO: 1 (PFFLLPSFFNNTSLA; listed as Homo sapiens) [FABP7 #33]", "Binding affinity": "++"},
      {"molecule": "Aa 107-121-SEQ ID NO: 6 (REIKDGKMVMTLTFG; listed as Homo sapiens) [FABP7 #22]", "Binding affinity": "−"},
      {"molecule": "Aa 69 + 96-109-SEQ ID NO: 2 [PROK2 #17]", "Binding affinity": "−"},
      {"molecule": "Aa 126-140-SEQ ID NO: 1 (LVFFSSPHTSHLLPS; listed as Homo sapiens) [FABP7 #29]", "Binding affinity": "+"},
      {"molecule": "Aa 62-76-SEQ ID NO: 1 (EISFQLGEEFDETTA; listed as Homo sapiens) [FABP7 #13]", "Binding affinity": "−"},
      {"molecule": "Aa 78-92-SEQ ID NO: 2 (GNGRQERRKRKRSKR; listed as Homo sapiens) [PROK2 #11]", "Binding affinity": "−"},
      {"molecule": "Aa 53-67-SEQ ID NO: 2 (KSIRICTPMGKLGDS; listed as Homo sapiens) [PROK2 #6]", "Binding affinity": "+++"},
      {"molecule": "Aa 93-107-SEQ ID NO: 2 (KKEVPFFGRRMHHTC; listed as Homo sapiens) [PROK2 #14]", "Binding affinity": "+"},
      {"molecule": "Aa 58-72-SEQ ID NO: 2 (CTPMGKLGDSCHPLT; listed as Homo sapiens) [PROK2 #7]", "Binding affinity": "−"},
      {"molecule": "Aa 33-47-SEQ ID NO: 2 (ACDKDSQCGGGMCCA; listed as Homo sapiens) [PROK2 #2]", "Binding affinity": "−"},
      {"molecule": "Aa 82-96-SEQ ID NO: 1 (KSVVSLDGDKLVHIQ; listed as Homo sapiens) [FABP7 #17]", "Binding affinity": "−"},
      {"molecule": "Aa 07-21-SEQ ID NO: 1 (ATWKLTNSQNFDEYM; listed as Homo sapiens) [FABP7 #2]", "Binding affinity": "+"},
      {"molecule": "Aa 59-69 + 96-99-SEQ ID NO: 2 [PROK2 #15]", "Binding affinity": "−"},
      {"molecule": "Aa 110-124-SEQ ID NO: 2 (LPGLACLRTSFNRFI; listed as Homo sapiens) [PROK2 #20]", "Binding affinity": "++"},
      {"molecule": "Aa 88-102-SEQ ID NO: 2 (KRSKRKKEVPFFGRR; listed as Homo sapiens) [PROK2 #13]", "Binding affinity": "−"},
      {"molecule": "Aa 38-52-SEQ ID NO: 2 (SQCGGGMCCAVSIWV; listed as Homo sapiens) [PROK2 #3]", "Binding affinity": "−"},
      {"molecule": "Aa 111-125-SEQ ID NO: 1 (DGKMVMVSNDNSPFF; listed as Homo sapiens) [FABP7 #26]", "Binding affinity": "+"},
      {"molecule": "Aa 57-71-SEQ ID NO: 1 (TFKNTEISFQLGEEF; listed as Homo sapiens) [FABP7 #12]", "Binding affinity": "−"},
      {"molecule": "Aa 68-82-SEQ ID NO: 2 (CHPLTRKNNFGNGRQ; listed as Homo sapiens) [PROK2 #9]", "Binding affinity": "+"},
      {"molecule": "Aa 48-62-SEQ ID NO: 2 (VSIWVKSIRICTPMG; listed as Homo sapiens) [PROK2 #5]", "Binding affinity": "+"},
      {"molecule": "Aa 136-150-SEQ ID NO: 1 (HLLPSSSLLLPFFLL; listed as Homo sapiens) [FABP7 #31]", "Binding affinity": "−"},
      {"molecule": "Aa 141-155-SEQ ID NO: 1 (SSLLLPFFLLPSFFN; listed as Homo sapiens) [FABP7 #32]", "Binding affinity": "−"},
      {"molecule": "Aa 47-61-SEQ ID NO: 1 (GDKVVIRTLSTFKNT; listed as Homo sapiens) [FABP7 #10]", "Binding affinity": "+"},
      {"molecule": "Aa 121-135-SEQ ID NO: 1 (NSPFFLVFFSSPHTS; listed as Homo sapiens) [FABP7 #28]", "Binding affinity": "+++"},
      {"molecule": "Aa 77-91-SEQ ID NO: 1 (DDRNCKSVVSLDGDK; listed as Homo sapiens) [FABP7 #16]", "Binding affinity": "−"},
      {"molecule": "Aa 115-129-SEQ ID NO: 2 (CLRTSFNRFICLAQK; listed as Homo sapiens) [PROK2 #21]", "Binding affinity": "+"},
      {"molecule": "Aa 106-120-SEQ ID NO: 1 (VREIKDGKMVMVSND; listed as Homo sapiens) [FABP7 #25]", "Binding affinity": "−"},
      {"molecule": "Aa 100-114-SEQ ID NO: 2 (GRRMHHTCPCLPGLA; listed as Homo sapiens) [PROK2 #18]", "Binding affinity": "−"},
      {"molecule": "Aa 02-16-SEQ ID NO: 1 (VEAFCATWKLTNSQN; listed as Homo sapiens) [FABP7 #1]", "Binding affinity": "+"},
      {"molecule": "Aa 43-57-SEQ ID NO: 2 (GMCCAVSIWVKSIRI; listed as Homo sapiens) [PROK2 #4]", "Binding affinity": "+"},
      {"molecule": "Aa 17-31-SEQ ID NO: 1 (FDEYMKALGVGFATR; listed as Homo sapiens) [FABP7 #4]", "Binding affinity": "++"},
      {"molecule": "Aa 28-42-SEQ ID NO: 2 (AVITGACDKDSQCGG; listed as Homo sapiens) [PROK2 #1]", "Binding affinity": "−"},
      {"molecule": "Aa 27-41-SEQ ID NO: 1 (GFATRQVGNVTKPTV; listed as Homo sapiens) [FABP7 #6]", "Binding affinity": "+"},
      {"molecule": "Aa 105-119-SEQ ID NO: 2 (HTCPCLPGLACLRTS; listed as Homo sapiens) [PROK2 #19]", "Binding affinity": "−"},
      {"molecule": "Aa 131-145-SEQ ID NO: 1 (SPHTSHLLPSSSLLL; listed as Homo sapiens) [FABP7 #30]", "Binding affinity": "+"},
      {"molecule": "Aa 63-77-SEQ ID NO: 2 (KLGDSCHPLTRKNNF; listed as Homo sapiens) [PROK2 #8]", "Binding affinity": "−"},
      {"molecule": "Aa 72-86-SEQ ID NO: 1 (DETTADDRNCKSVVS; listed as Homo sapiens) [FABP7 #15]", "Binding affinity": "−"},
      {"molecule": "Aa 37-51-SEQ ID NO: 1 (TKPTVIISQEGDKVV; listed as Homo sapiens) [FABP7 #8]", "Binding affinity": "−"},
      {"molecule": "Aa 116-130-SEQ ID NO: 1 (MVSNDNSPFFLVFFS; listed as Homo sapiens) [FABP7 #27]", "Binding affinity": "−"},
      {"molecule": "Aa 83-97-SEQ ID NO: 2 (ERRKRKRSKRKKEVP; listed as Homo sapiens) [PROK2 #12]", "Binding affinity": "−"},
      {"molecule": "Aa 97-111-SEQ ID NO: 1 (KWDGKETNFVREIKD; listed as Homo sapiens) [FABP7 #20]", "Binding affinity": "−"},
      {"molecule": "Aa 118-132-SEQ ID NO: 6 (LTFGDVVAVRHYEKA; listed as Homo sapiens) [FABP7 #24]", "Binding affinity": "+"}
    ]},
    {"target": "HLA DRB5 01:01", "assay": "competitive HLA binding assay (legend: - No binding)", "conditions": "not given", "values": [
      {"molecule": "TNSQNFDEYMKALGV (also called Pool 1 FABP7)", "note": "[FABP7 peptide #3 (Aa 12-26 of SEQ ID NO: 1)]", "binding result": "no binding"},
      {"molecule": "DETTADDRNCKSVVS (also called Pool 3 FABP7)", "note": "[FABP7 peptide #15 (Aa 72-86 of SEQ ID NO: 1)]", "binding result": "no binding"},
      {"molecule": "DDRNCKSVVSLDGDK (also called Pool 3 FABP7)", "note": "[FABP7 peptide #16 (Aa 77-91 of SEQ ID NO: 1)]", "binding result": "no binding"},
      {"molecule": "KSVVSLDGDKLVHIQ (also called Pool 3 FABP7)", "note": "[FABP7 peptide #17 (Aa 82-96 of SEQ ID NO: 1)]", "binding result": "no binding"},
      {"molecule": "LDGDKLVHIQKWDGK (also called Pool 3 FABP7)", "note": "[FABP7 peptide #18 (Aa 87-101 of SEQ ID NO: 1)]", "binding result": "no binding"},
      {"molecule": "LVHIQKWDGKETNFV (also called Pool 4 FABP7)", "note": "[FABP7 peptide #19 (Aa 92-106 of SEQ ID NO: 1)]", "binding result": "no binding"},
      {"molecule": "KWDGKETNFVREIKD (also called Pool 4 FABP7)", "note": "[FABP7 peptide #20 (Aa 97-111 of SEQ ID NO: 1)]", "binding result": "no binding"},
      {"molecule": "B1", "binding result": "no binding"},
      {"molecule": "B2", "binding result": "no binding"},
      {"molecule": "VREIKDGKMVMVSND (also called Pool 5 FABP7)", "note": "[FABP7 peptide #25 (Aa 106-120 of SEQ ID NO: 1)]", "binding result": "no binding"},
      {"molecule": "MVSNDNSPFFLVFFS (also called Pool 5 FABP7)", "note": "[FABP7 peptide #27 (Aa 116-130 of SEQ ID NO: 1)]", "binding result": "no binding"},
      {"molecule": "KALGVGFATRQVGNV (also called Pool 1 FABP7)", "note": "[FABP7 peptide #5 (Aa 22-36 of SEQ ID NO: 1)]", "binding result": "no binding"},
      {"molecule": "HLLPSSSLLLPFFLL (also called Pool 6 FABP7)", "note": "[FABP7 peptide #31 (Aa 136-150 of SEQ ID NO: 1)]", "binding result": "no binding"},
      {"molecule": "SSLLLPFFLLPSFFN (also called Pool 6 FABP7)", "note": "[FABP7 peptide #32 (Aa 141-155 of SEQ ID NO: 1)]", "binding result": "no binding"},
      {"molecule": "AVITGACDKDSQCGG (also called Pool 1 PROK2)", "note": "[PROK2 peptide #1 (Aa 28-42 of SEQ ID NO: 2)]", "binding result": "no binding"}
    ]}
  ]
}
